This note sets out measurements from article PMC8546341, “A Novel β-Glucosidase From Chryseobacterium scophthalmum 1433 for Efficient Rubusoside Production From Stevioside” (Frontiers in Microbiology, 2021).

One data set addresses T1, CsBGL (Chryseobacterium scophthalmum, UniProt A0A8A3WQK4).
T1 construct: gene bgl
T1 sequence (A0A8A3WQK4 19-775): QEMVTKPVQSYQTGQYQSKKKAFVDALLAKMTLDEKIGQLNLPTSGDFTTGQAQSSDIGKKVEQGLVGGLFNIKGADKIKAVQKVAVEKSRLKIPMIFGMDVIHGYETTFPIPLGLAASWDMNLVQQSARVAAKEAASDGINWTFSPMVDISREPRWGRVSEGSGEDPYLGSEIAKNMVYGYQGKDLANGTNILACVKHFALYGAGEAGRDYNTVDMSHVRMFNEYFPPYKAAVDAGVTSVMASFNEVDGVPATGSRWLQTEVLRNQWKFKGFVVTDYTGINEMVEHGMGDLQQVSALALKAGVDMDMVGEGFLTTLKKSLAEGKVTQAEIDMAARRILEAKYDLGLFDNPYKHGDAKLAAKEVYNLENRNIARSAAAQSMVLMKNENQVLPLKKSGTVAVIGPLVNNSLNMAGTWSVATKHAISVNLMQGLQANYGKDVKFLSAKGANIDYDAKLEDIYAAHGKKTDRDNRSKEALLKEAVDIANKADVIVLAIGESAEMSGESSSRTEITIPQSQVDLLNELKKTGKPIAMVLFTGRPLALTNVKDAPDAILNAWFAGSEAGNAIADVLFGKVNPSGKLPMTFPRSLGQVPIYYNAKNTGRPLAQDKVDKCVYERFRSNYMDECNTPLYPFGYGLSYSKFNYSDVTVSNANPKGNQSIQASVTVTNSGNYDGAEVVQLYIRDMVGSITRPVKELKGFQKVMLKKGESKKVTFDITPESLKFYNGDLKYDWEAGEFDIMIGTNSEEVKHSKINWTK
Kind of data set: inhibition of pNP-β-Glc hydrolysis, p-nitrophenol at […] nm. Type of data set: biochemical. The conditions noted are these: substrate pNP-β-Glc 0.1–10 mM, glucose 0–80 mM, 50 mM sodium phosphate pH 7.4, 45 °C; mode not stated.

Substrate in the data set “purified protein”: O=[N+]([O-])c1ccc(O[C@@H]2O[C@H](CO)[C@@H](O)[C@H](O)[C@H]2O)cc1
Put plainly: purified protein. It is filed as biochemical, Chryseobacterium scophthalmum. The conditions noted are these: 50 mM sodium phosphate pH 7.4, 45 °C.

Substrate in data set [1]: C=C1C[C@@]23CC[C@H]4[C@@](C)(CCC[C@@]4(C)C(=O)O[C@@H]4O[C@H](CO)[C@@H](O)[C@H](O)[C@H]4O)[C@@H]2CC[C@]1(O[C@@H]1O[C@H](CO)[C@@H](O)[C@H](O)[C@H]1O[C@@H]1O[C@H](CO)[C@@H](O)[C@H](O)[C@H]1O)C3
Put plainly: initial velocity of stevioside hydrolysis. Conditions: 50 mM sodium phosphate pH 6.5, 47.5 °C. Type of data set: biochemical, Chryseobacterium scophthalmum.

By Ki is commonly meant a dissociation constant, usually derived from enzyme kinetics or from competition with a known ligand. Low readings indicate tighter binding, high ones weaker binding. As to `OC[C@H]1OC(O)[C@H](O)[C@@H](O)[C@@H]1O` (some centres unmarked) [glucose], affinity on CsBGL was put at a Ki of 16.4 mM.

B1: CsBGL (Chryseobacterium scophthalmum) (protein)
chain: T1 sequence (A0A8A3WQK4 19-775)
The term Km denotes the concentration of substrate that gives half-maximal velocity. A word on the kcat: it is the maximal rate divided by the concentration of active sites. Turning to B1, in the data set “purified protein”, the Km was 1620 µM and the catalytic constant (kcat) was found to be 16.77 s⁻¹. Moreover, in data set [1], the Km came to 1540 µM and the kcat came out at 248.59 s⁻¹.
